Measurements published in patent US10040826.

Columns and labels:
A244 Δ11 gp120 (HIV-1) [1] = test: SPR titration, binding to PG9 mAb (IAVI PG9); A244 gDneg D11 at [10] to [100], unit inferred
A244 Δ11 gp120 (HIV-1) [2] = test: SPR
[3] = target: A244 gDΔ11 gp120 (Herpes simplex virus; HIV-1); test: SPR
A244 Δ11 gp120 (HIV-1) [4] = test: SPR, mAb captured on anti-Fc surface, monomeric gp120 as analyte
[5] = target: A244 gp120 (no modifications) (HIV-1); test: as above
[6] = target: A244 gDΔ11 gp120 (Herpes simplex virus; HIV-1); test: as above
[7] = target: MN gDΔ11 gp120 (Herpes simplex virus; HIV-1); test: Kd table; row B.MN gp120, column PG9 gD+; method not given
[8] = target: A244 gDΔ11 gp120 (Herpes simplex virus; HIV-1); test: Kd table; row AE.A244 gp120, column PG9 gD+; method not given
[9] = target: A244 gDΔ11 gp120 (Herpes simplex virus; HIV-1); test: SPR titration, binding to PG9 mAb (IAVI PG9); A244 gD+293Tmon at [10] to [40], unit inferred
[10] = target: A244 gDΔ11 gp120 (Herpes simplex virus; HIV-1); test: SPR titration, binding to PG9 mAb (IAVI PG9); A244 gD+293Tmon at [10], [20], [30], [40], unit inferred
[11] = target: 92TH023 gDΔ11 gp120 (Herpes simplex virus; HIV-1); test: Kd table; row AE.92TH023 gp120, column PG9 gD+; method not given
[12] = target: A244 gp120 (no modifications) (HIV-1); test: Kd table; row AE.A244 gp120, column PG9 gD-; method not given
A244 Δ11 gp120 (HIV-1) [13] = test: SPR titration, binding to PG9 mAb (IAVI PG9); A244 gDneg D11 at [10], [25], [50], [75], [100], unit inferred
[14] = target: MN gp120 (no modifications) (HIV-1); test: Kd table; row B.MN gp120, column PG9 gD-; method not given
A244 Δ11 gp120 (HIV-1) [15] = test: SPR; A244 gp120 gD- Δ11 293T monomer batch 110608 flowed over immobilised T8; response axis in RU
A244 Δ11 gp120 (HIV-1) [16] = test: SPR; A244 gp120 gD- Δ11 293T monomer batch 110608 flowed over immobilised T8; ratio to ConS gp140
A244 Δ11 gp120 (HIV-1) [17] = test: SPR titration, binding to CH03 mAb; A244 gDneg D11 at [10], [25], [50], [75], [100], unit inferred
[18] = target: A244 gp120 (no modifications) (HIV-1); test: SPR titration, binding to CH03 mAb; A244 gDneg at [10] to [100], unit inferred
A244 Δ11 gp120 (HIV-1) [19] = test: SPR titration, binding to CH03 mAb; A244 gDneg D11 at [10] to [100], unit inferred
[20] = target: A244 gDΔ11 gp120 (Herpes simplex virus; HIV-1); test: SPR titration, binding to CH01 mAb; A244 gD+ 293Tmon at [5] to [100], unit inferred; footnote: '* Fit deviation, need to lower Ag density'
[21] = target: A244 gp120 (no modifications) (HIV-1); test: SPR titration, binding to CH01 mAb; A244 gDneg at [10] to [100], unit inferred; the sheet prints a slash where a decimal point is meant (kd/ka as printed gives 3.1 µM)
[22] = target: A244 gDΔ11 gp120 (Herpes simplex virus; HIV-1); test: SPR titration, binding to CH01 mAb; A244 gD+ 293Tmon at [5] to [100], unit inferred
[23] = target: MN gp120 (no modifications) (HIV-1); test: Kd table; row B.MN gp120, column CH01 gD-; method not given
[24] = target: MN gDΔ11 gp120 (Herpes simplex virus; HIV-1); test: Kd table; row B.MN gp120, column CH01 gD+; method not given
[25] = target: A244 gDΔ11 gp120 (Herpes simplex virus; HIV-1); test: SPR titration, binding to CH01 mAb; A244 gD+ 293Tmon at [5], [10], [25], [50], [100], unit inferred
[26] = target: A244 gp120 (no modifications) (HIV-1); test: Kd table; row AE.A244 gp120, column CH01 gD-; method not given
A244 Δ11 gp120 (HIV-1) [27] = test: SPR titration, binding to CH01 mAb; A244 gDneg D11 at [10], [25], [50], [75], [100], unit inferred
A244 Δ11 gp120 (HIV-1) [28] = test: SPR blocking on immobilized A244 Δ11 gp120, mAb injected to near saturation, then RV144 vaccinee IgG; against 7B2 control
[29] = target: A244 gDΔ11 gp120 (Herpes simplex virus; HIV-1); test: Kd table; row AE.A244 gp120, column CH01 gD+; method not given
[30] = target: A244 gp120 (no modifications) (HIV-1); test: SPR titration, binding to CH01 mAb; A244 gDneg at [10] to [100], unit inferred
A244 Δ11 gp120 (HIV-1) [31] = test: SPR titration, binding to CH01 mAb; A244 gDneg D11 at [10] to [100], unit inferred
[32] = target: A244 gp120 (no modifications) (HIV-1); test: SPR titration, binding to CH01 mAb; A244 gDneg at [10], [25], [50], [75], [100], unit inferred
A244 Δ11 gp120 (HIV-1) [33] = test: SPR; 17b flowed over A244gD- d11 (batch 110608) held on immobilised sCD4 (sCD4-triggered Env)
A244 Δ11 gp120 (HIV-1) [34] = test: SPR; 17b flowed over A244gD- d11 (batch 110608) held on immobilised T8 (T8-triggered Env); response axis in RU
A244 Δ11 gp120 (HIV-1) [35] = test: SPR; 17b flowed over A244gD- d11 (batch 110608) held on immobilised sCD4 (sCD4-triggered Env); response axis in RU
A244 Δ11 gp120 (HIV-1) [36] = test: SPR; 17b flowed over A244gD- d11 (batch 110608) held on immobilised A32 (A32-triggered Env); response axis in RU
A244 Δ11 gp120 (HIV-1) [37] = test: SPR; 17b flowed over A244gD- d11 (batch 110608) held on immobilised A32 (A32-triggered Env)
[38] = target: MN-rgp120 (RV144 vaccine immunogen) (Herpes simplex virus; HIV-1); test: SPR, mAb captured on anti-Fc surface, gp120 as analyte (FIG. 28)
[39] = target: A244-rgp120 (RV144 vaccine immunogen) (Herpes simplex virus; HIV-1); test: SPR; 19b captured on anti-Fc surface, RV144 A244-rgp120 injected at 0.5-5 µg/mL; fitted curves [lower row]
[40] = target: MN-rgp120 (RV144 vaccine immunogen) (Herpes simplex virus; HIV-1); test: SPR; 19b captured on anti-Fc surface, RV144 MN-rgp120 injected at 0.5-5 µg/mL; fitted curves

Work on V2V3 bnAb PG9 (antibody) yielded a Kd (A244 Δ11 gp120 (HIV-1) [1]) of 0.0887 µM, a koff (A244 Δ11 gp120 (HIV-1) [1]) of 0.00102 s⁻¹ and a fold higher affinity than for unmodified A244 gp120 (A244 Δ11 gp120 (HIV-1) [2]) of 3 fold. The fold higher affinity than for unmodified A244 gp120 [3] was 3 fold, the Kd (A244 Δ11 gp120 (HIV-1) [4]) was 0.0526 µM and the koff (A244 Δ11 gp120 (HIV-1) [4]) was 0.00057 s⁻¹. It also gave a kon (A244 Δ11 gp120 (HIV-1) [4]) of 10900 M⁻¹ s⁻¹, a Kd [5] of 0.183 µM and a koff [5] of 0.0011 s⁻¹. The kon [5] was 5000 M⁻¹ s⁻¹, the Kd [6] was 0.0481 µM and the koff [6] was 0.00055 s⁻¹. For the same substance, the kon [6] was 11500 M⁻¹ s⁻¹, the Kd [7] was 0.542 µM and the Kd [8] was 0.128 µM. The Kd [9] was 0.0627 µM, the koff [9] was 0.00105 s⁻¹ and the kon [10] was 16800 M⁻¹ s⁻¹. The Kd [11] was 0.212 µM, the Kd [12] was 1.1 µM and the kon (A244 Δ11 gp120 (HIV-1) [13]) was 11500 M⁻¹ s⁻¹. For the same substance, the Kd [14] was 0.347 µM.

VRC01 (CD4 bs mAb) (antibody) showed a Kd (A244 Δ11 gp120 (HIV-1) [4]) of 0.0367 µM, a koff (A244 Δ11 gp120 (HIV-1) [4]) of 0.00039 s⁻¹ and a kon (A244 Δ11 gp120 (HIV-1) [4]) of 9700 M⁻¹ s⁻¹. The Kd [5] was 0.0157 µM, the koff [5] was 0.00028 s⁻¹ and the kon [5] was 17600 M⁻¹ s⁻¹. It also gave a Kd [6] of 0.0158 µM, a koff [6] of 0.00021 s⁻¹ and a kon [6] of 13300 M⁻¹ s⁻¹.

Substance T8 (C1 mAb) (antibody) has a Req (A244 Δ11 gp120 (HIV-1) [15]) of 1250 and a Relative Binding Env/ConS gp140 (A244 Δ11 gp120 (HIV-1) [16]) of 2.88.

Substance V2 mAb 830A (antibody) has a fold more avid than to unmodified A244 gp120 (A244 Δ11 gp120 (HIV-1) [2]) of 5 fold, a fold more avid than to unmodified A244 gp120 [3] of 5 fold and a Kd (A244 Δ11 gp120 (HIV-1) [4]) of 0.00156 µM. It also gave a koff (A244 Δ11 gp120 (HIV-1) [4]) of 8.8e-05 s⁻¹, a kon (A244 Δ11 gp120 (HIV-1) [4]) of 59900 M⁻¹ s⁻¹ and a Kd [5] of 0.0102 µM. The koff [5] was 0.00022 s⁻¹, the kon [5] was 21800 M⁻¹ s⁻¹ and the Kd [6] was 0.0017 µM. It also gave a koff [6] of 7e-05 s⁻¹ and a kon [6] of 41100 M⁻¹ s⁻¹.

“mAb CH03 (V2,V3 conformational) (antibody)” gave a kon (A244 Δ11 gp120 (HIV-1) [17]) of 27000 M⁻¹ s⁻¹, a Kd [18] of 5.5 µM and a koff [18] of 0.0055 s⁻¹. It also gave a Kd (A244 Δ11 gp120 (HIV-1) [19]) of 0.62 µM and a koff (A244 Δ11 gp120 (HIV-1) [19]) of 0.0167 s⁻¹.

V2V3 bnAb CH01 (antibody) showed a Kd [20] of 0.29 µM, a Kd [21] of 3.1 µM and a koff [22] of 0.0028 s⁻¹. It also gave a fold faster association rate than with unmodified gp120 (A244 Δ11 gp120 (HIV-1) [2]) of 10 fold, a fold higher affinity than for unmodified A244 gp120 (A244 Δ11 gp120 (HIV-1) [2]) of 5 fold and a fold faster association rate than with unmodified gp120 [3] of 10 fold. The fold higher affinity than for unmodified A244 gp120 [3] was 5 fold, the Kd (A244 Δ11 gp120 (HIV-1) [4]) was 0.317 µM and the koff (A244 Δ11 gp120 (HIV-1) [4]) was 0.0156 s⁻¹. For the same substance, the kon (A244 Δ11 gp120 (HIV-1) [4]) was 49000 M⁻¹ s⁻¹, the Kd [5] was 1.64 µM and the koff [5] was 0.00438 s⁻¹. For the same substance, the kon [5] was 3730 M⁻¹ s⁻¹, the Kd [6] was 0.278 µM and the koff [6] was 0.0099 s⁻¹. The kon [6] was 37200 M⁻¹ s⁻¹, the Kd [23] was 0.457 µM and the Kd [24] was 0.288 µM. For the same substance, the kon [25] was 9800 M⁻¹ s⁻¹, the Kd [26] was 2.1 µM and the kon (A244 Δ11 gp120 (HIV-1) [27]) was 31100 M⁻¹ s⁻¹. For the same substance, the percent blocking of RV144 vaccinee IgG binding (A244 Δ11 gp120 (HIV-1) [28]) was 24.6%, the Kd [29] was 0.2 µM and the koff [30] was 0.00237 s⁻¹. For the same substance, the Kd (A244 Δ11 gp120 (HIV-1) [31]) was 0.43 µM, the koff (A244 Δ11 gp120 (HIV-1) [31]) was 0.0135 s⁻¹ and the kon [32] was 760 M⁻¹ s⁻¹.

“CCR5 receptor gp120 binding site mAb 17b (antibody)” showed a 17b binding ratio (A244 Δ11 gp120 (HIV-1) [33]) of 0.316, a Req (A244 Δ11 gp120 (HIV-1) [34]) of -169 and a Req (A244 Δ11 gp120 (HIV-1) [35]) of 166. It also gave a Req (A244 Δ11 gp120 (HIV-1) [36]) of 529 and a 17b binding ratio (A244 Δ11 gp120 (HIV-1) [37]) of 0.327.

For V3 mAb 19b (antibody), the Kd (A244 Δ11 gp120 (HIV-1) [4]) was 0.00654 µM, the koff (A244 Δ11 gp120 (HIV-1) [4]) was 0.00156 s⁻¹ and the kon (A244 Δ11 gp120 (HIV-1) [4]) was 239000 M⁻¹ s⁻¹. It also gave a Kd [5] of 0.0118 µM, a koff [5] of 0.00154 s⁻¹ and a kon [5] of 130000 M⁻¹ s⁻¹. The Kd [6] was 0.00824 µM, the koff [6] was 0.0014 s⁻¹ and the kon [6] was 170000 M⁻¹ s⁻¹. The fold lower Kd than for A244-rgp120 [38] was 5 fold, the Kd [39] was 0.0153 µM and the Kd [40] was 0.0034 µM.
